± gives the uncertainty stated by the source.

This data set is described as follows: amyloid nucleation score (Sup35N fusion, yeast selection) (log enrichment); library NNK1; higher = more nucleation; inactive = no reads after selection. The method in brief: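 Peptides of 20 random codons, each fused to Sup35N, were expressed in psi-negative yeast. Cells were induced with 100 μM copper sulfate for 24 hours and grown 7 days at 30°C on medium lacking adenine and uracil, and plasmid inserts before and after selection were Illumina-sequenced. Nucleation scores are DiMSum log enrichments of output over input reads, centred on the mode score of non-aggregating sequences, and sequences under 100 input reads were excluded.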
On to HVTVNGWGAVSFLKNAKVVR, for which the amyloid nucleation score entry was “inactive”.

The substance HVVFVMDVRYPKIAVVYLLA displayed an amyloid nucleation score of 1.1 ± 0.66. Turning to HWSSFPNVLYIM, the amyloid nucleation score was -0.106 ± 0.44.

Substance HWSSSVSVNGVRYTFMSTSR returned an amyloid nucleation score of -2.08 ± 2.7. In turn, HWTTHESRKMVGQRFQPVGG registered an amyloid nucleation score of 0.078 ± 0.34. Next, HWWYFCINP: “inactive”; HYLVLYVIMYMFVQMSLPC: 2.14 ± 0.49. Next, HYRYFCGLTYVDSAARLQGG: -1.5 ± 1.8; HYSGIVWCSVREL: 1.72 ± 0.52; HYVVG: -0.784 ± 0.74. Substance IAREVSSVTVSPQEGTRWWG yielded an amyloid nucleation score of 0.276 ± 0.3. Consider ICFRSFRHGNYGLMRG, for which the amyloid nucleation score is 1.35 ± 0.9. Next, ICHFVLYVQRPNSGWHYKSL: 1.91 ± 0.53; ICIASFCKKNVTCGLIWLIV: 1.51 ± 0.7; ICISSPVMMKAIPLPFEFSR: -0.167 ± 0.43. Next, ICLIAWGQ: 1.66 ± 0.41; ICLLLCLVWDGCIATISNGL: -1.39 ± 2.1; ICQRSRAGSGSEVLT: -0.205 ± 0.49.

With ICSNVLFVLILEKEASFGCY, the amyloid nucleation score came to 4.21 ± 0.051. In turn, ICSWPNRRVAVPH yielded an amyloid nucleation score of -0.482 ± 1.2. Next, ICTFVMKLTAFVIIVLVFFH: -0.125 ± 0.26; IDKNVIIIKVLCMLIVFPTG: -0.771 ± 0.82; IDTNCRNCGYREFASKCELR: 0.456 ± 0.26. Next, IDVRI: -0.152 ± 0.43; IEAYVINGKLDWALWFRGDE: -0.407 ± 0.85; IEDTGIYRSVTFTVAMTYTV: -0.373 ± 0.38.

Regarding IEESSWLLDFRSGSALSEVS, the amyloid nucleation score is -0.542 ± 0.86. Under IEFLAILLVAAMVQ stands -0.345 ± 1.2; under IELVNYFHYFRWVGLLDRRC, -0.077 ± 0.38; under IESWCLMSVNSDGARWSSRF, -0.872 ± 0.83. Under IFEIAESDLVYDHFSHYFKR stands -0.033 ± 0.67. Under IFFKLVLVWTFLLTYQAYWV stands 0.174 ± 0.85. In turn, IFGGLH came in with an amyloid nucleation score of 0.631 ± 0.5. Next, IFGITNSMLVFMGYCLIHCL: -0.895 ± 1.

As for IFITCIARTLYHAGNLQRNL, the amyloid nucleation score amounted to 2 ± 0.11. Next, IFLGIFSGILYRLSHRLCS: “inactive”; IFRSFLDG: -0.437 ± 0.3. Next, IFSGWCVRVFCSFLKHNCLN: -0.408 ± 0.47; IFSHIPCLITFSNDQ: 2.13 ± 0.43. Under IFVSHYNVR stands 0.734 ± 0.25; under IFVSSVRGAPYIYKCTKSRM, -0.504 ± 0.52. IGAGPRL had an amyloid nucleation score of -0.623 ± 0.27.

In the case of IGCLKFSFFHNLGFGSIDYR, the amyloid nucleation score is -0.742 ± 0.53. As for IGPGTWGLSLYRDRILITTM, the amyloid nucleation score is -0.037 ± 0.89. Next, IGSMRMVSGLRFMRFVDHFS: -0.316 ± 0.42. Under IGSVCLQ stands “inactive”; under IGVRRFFLWS, -0.753 ± 0.48; under IHLCYRDYRMHVARLSAETG, 0.02 ± 0.53. Under IHMLIVLSF stands -0.103 ± 1.4; under IHRFKFGG, 1.98 ± 0.2; under IHVPNYVDRELELRASNSSR, -0.298 ± 0.32. In the case of IHWANPLTVSAFKVWVEDMV, the amyloid nucleation score amounted to 0.256 ± 0.29. Under IICSSM stands “inactive”; under IIFHICRTGEDLTKSGCLSW, -0.494 ± 1.1; under IIFNYPNPIYLNAKEVMLYI, 6.52 ± 0.067. Under IIGRLNLKMISGLI stands 2.15 ± 0.58. Substance IIHFKSGIWNATDGCLIMCV registered an amyloid nucleation score of 0.793 ± 0.65. Under IILFSSVGCSMCMTSGLEGF stands 6.964 ± 0.066; under IILLNNYTDMHIPEGIGVTM, 0.466 ± 1.4.

Take IIMRTMHHAKRLSGLKP: the amyloid nucleation score is 0.996 ± 0.44. Under IIPPV stands “inactive”; under IIQCNVTYAS, 3.63 ± 0.12; under IIRGRNVNSVRSNYYMGRFY, 2.72 ± 0.095. Next, IISVTVFFKCARLEILNR: -0.64 ± 0.57. With IKALMIC, the amyloid nucleation score result is “inactive”. Under IKGPLLFIFSESVLAFDETS stands 3.6 ± 0.073.

In the case of IKGQGVKVSVVLTAGTCRLW, the amyloid nucleation score came to 1.17 ± 0.19.

The substance IKIIAFFWLCSYHGWISWKS gave an amyloid nucleation score of -1.5 ± 1.1. Under IKIRAFDTSSCSQFRVRPRV stands 4.63 ± 0.095.

As to IKISYEIQAMAVLGM, the amyloid nucleation score result is “inactive”.

IKLGVFRIKSSFN returned an amyloid nucleation score of 0.708 ± 0.34.

The substance IKLHSEGRIYHINFACRSVC displayed an amyloid nucleation score of 0.199 ± 0.24. With IKLTPLMLRTTELV, the amyloid nucleation score was -1.32 ± 0.5. Next, IKNKGRYVFETPGL: 0.13 ± 0.87; IKPANYA: -0.679 ± 0.53. Substance IKSGPPGRRQLFN yielded an amyloid nucleation score of -0.741 ± 0.81. On to ILFFRRCISVGLL, for which the amyloid nucleation score is 3.33 ± 0.12. ILGFSRWNLNCISSRGRKIR returned an amyloid nucleation score of -0.297 ± 0.39. Under ILGLSRGQ stands 0.015 ± 0.37; under ILGMFSTICDGWADVMH, 0.525 ± 0.36; under ILGWHGIRFVFRTALFRR, -0.286 ± 0.41. The substance ILHQAILRCVSRYGLS returned an amyloid nucleation score of -0.012 ± 0.76. Under ILIFVNSVYRNVSSR stands 5.27 ± 0.056. As to ILILNGLGGHVFARWYVACT, the amyloid nucleation score was determined as 0.002 ± 0.75. Under ILILRGNCR stands -0.165 ± 0.73; under ILISVSLNMWY, 2.43 ± 0.13; under ILITSLWFSGVADVMANRVW, 0.314 ± 0.34.

ILMMPLIESCMEVLGHPS gave an amyloid nucleation score of 0.873 ± 0.51. Next, ILMYMWDKLNLYNIWFLRQV: 0.263 ± 0.5; ILPKWAK: 0.7 ± 0.97; ILPRNFVSTNVANRFIEGSS: 0.932 ± 0.66. Next, ILQSFSTVEHFEDLL: 0.58 ± 1.2. Next, ILRNGRTYGAEVLQQLWNVL: -0.418 ± 0.73; ILSAMVRE: -0.081 ± 0.23. In the case of ILSICLSLVFRPSVMIEYLR, the amyloid nucleation score came to 0.191 ± 0.26. Under ILSIFLYWAILLRSCQYLYW stands -0.949 ± 0.4.

ILSKVCGFSVARIWCSCISI displayed an amyloid nucleation score of 6.65 ± 0.088. ILTMVEILKTIRGSA had an amyloid nucleation score of -0.316 ± 0.47.

ILVPYLIAFFMEYRSRLCRF: the amyloid nucleation score turned out to be 0.254 ± 0.27. Next, ILYCLNLVIHLCQRYSLILR: 1.97 ± 0.56; IMARCIVFKPG: 0.136 ± 0.75; IMCPMWWLVLYNSSVQRYAE: 6.11 ± 0.07. Under IMFLRLFKGLCMKYSVRRDC stands -0.512 ± 0.4; under IMKYPETGLAGRLLTGYTLS, 0.633 ± 0.61.

In the case of IMLLLREKLASIRMMQECQL, the amyloid nucleation score entry is “inactive”.

IMLTGLRLHVVDGEKLPMTS yielded an amyloid nucleation score of 1.01 ± 0.71. The substance IMLVYMKTLGTM returned an amyloid nucleation score of 3.7 ± 0.071. IMSKRTWWLRPRGPTACFQW displayed an amyloid nucleation score of 0.208 ± 0.44.

In turn, IMSSL returned an amyloid nucleation score of -0.507 ± 0.73. Next, IMTESCCG: 0.743 ± 0.54; IMTSWFLPQSCQNDWDKLY: -0.012 ± 0.2; IMWSKENWDGG: -0.649 ± 0.44. Under IMYCLFGHLFLLRIGGFIMG stands 0.101 ± 0.68; under INFRHA, 2.57 ± 0.33; under INGMEYLEQKIEVL, 0.091 ± 0.42. Next, INGRTGILRRVGN: -1.28 ± 0.75; INHVMHGMEVRRGVNGRWMY: 0.312 ± 1.1; ININRNK: “inactive”. INLGFLWTCARDAVFLYDLS gave an amyloid nucleation score of 2.31 ± 0.17. For INLGVMWGVPTELLVCNF, the amyloid nucleation score result was “inactive”. Under INLYVNISRFIPCV stands 0.027 ± 0.53; under INMRKLPSRVSSFKVKCGHR, -0.42 ± 1.7. INQKSMMSSSDWRRWYFSGR: the amyloid nucleation score result was “inactive”. Next, INYFRWGDIFVYSNSKSSRL: 0.511 ± 0.17; IPARTESDTRYMSMCGSNNQ: -0.317 ± 0.55; IPCDFDRISSSVFAKCNYSI: -0.455 ± 0.24. For IPDVEGQGG, the amyloid nucleation score was 0.469 ± 0.72. Next, IPRYCRRNMADSAIV: 0.923 ± 0.62. Under IPSGTVF stands 0.34 ± 0.9; under IQSPC, -0.171 ± 0.23. Next, IQSSPIR: 0.464 ± 0.88; IRDTLNVCNKEEQKSRGS: -0.358 ± 0.37. Substance IRGFSSSISLWWVDGTVANV gave an amyloid nucleation score of -0.422 ± 0.49. As for IRSAN, the amyloid nucleation score came out at 0.918 ± 1.1.

In turn, IRSQKCCFLHRWFLACFRII returned an amyloid nucleation score of -0.624 ± 1.1. IRVSFCWSNLHNNYNSGRAT displayed an amyloid nucleation score of 5.02 ± 0.085. Under IRYCFCKIK stands 0.312 ± 1.1; under IRYLWHVLMVRFEESRWSLY, -0.061 ± 0.36. Next, IRYYVVSSVVDSNS: -0.142 ± 0.31; ISCCVKLRFGLCKSWNFMNQ: -1.19 ± 1.4; ISCSVKILRCLTCMLFSSVV: -0.8 ± 1.3. The substance ISCTTFACTTRLKIRAAS registered an amyloid nucleation score of 0.434 ± 0.56.

These data come from the supplement of paper PMC12042874.
